The supplement of paper PMC7125110
± gives the standard error. Fewer inactive variants are shown than the library holds.

B1: glmS ribozyme (parent)
chain: AUAAAAGCGCCAGAACUACAGAAAUGUAGUUGACGAGGAGGAGGUUUAUCGAAUUUUCGGCGGAUGCCUCCAAA

Variants of: B1
Assay: self-cleavage kobs at 2500 uM GlcN6P; higher = faster cleavage; RNA array
Settings: with glucosamine-6-phosphate
In short: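 Over ~14 h at 37 °C, tiles were imaged as glucosamine-6-phosphate (40 μM to 10 mM) in HEPES/KCl/Mg(OAc)2 buffer flowed across sequenced MiSeq chips. The chips carried barcoded ribozyme variants transcribed in situ by E. coli RNA polymerase and tracked with a hybridised Cy3 probe. After normalisation to baseline and to non-cleaving reference variants, one- or two-exponential decay fits of per-tile medians gave kobs. kcat and KM followed from weighted Michaelis–Menten fits across concentrations.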

Row | Variant | self-cleavage kobs at 2500 uM GlcN6P
1 | AUAAAAGUGCCAGAACUACAGAAAUGUAGUUGACGUGGAGGAGGUUUAUUGAAUUUUCGGCGGAUGCCUCCAAA | < 1e-05 s⁻¹
2 | AUAAAAGAGCCAGACCUACAGAAAUGUAGUUAACGAGGAGGAGGUUUAUCGAAUUUUCGGCGGAUGCCUCCAAA | < 1e-05 s⁻¹
3 | AUAAAAGCACCAGAACUACAGAAAUGUAGUUGUCGAGGCGGUGGUGUAUCGAAUAUUCGUCGGUUGCCUCCAAA | < 1e-05 s⁻¹
4 | AUAAAAGCCCCAGAACUACAGAAAUGUAGUUGACGAGGCGGAGGUUUAUCGAAUUUUCGGCGGAUGACUCCAAA | < 1e-05 s⁻¹
5 | AUAAAAGCACCAGAACUACAGAAAUGUAGUUGCCGAGGCGGAGGUUUAUCGAAUUUACGGCGGAUGCCUCCAAA | < 1e-05 s⁻¹
6 | AUAAAAGAGCCAGAACUACAGAAAUGUAGUUGACGAGGAGGAGGGUUAUCGAAGUUUCGGCGGAUACCUCCAAA | < 1e-05 s⁻¹
7 | AUAAAAGGGCCAGAUCUACAGAAAUGUAGUUGACGAGGAGGAGGUUUAUCGAAUCUUCGGCGGAUGCCUCCAAA | < 1e-05 s⁻¹
8 | AUAAAAUCGCCAGAACUACAGAAAUGUAGUUGACGAGGUGGAGGUUUAUAGAAUUUUCGGCGGAUGCCUCCAAA | < 1e-05 s⁻¹
9 | AUAAAAGAGCCAGAACUACAGAAAUGUAGUUGACGGGGAGGAGGUUUAUCGAGUUUUCGGCGGAUGCCUCCAAA | < 1e-05 s⁻¹
10 | AUAAAAGUGCCAGAACUACAGAAAUGUAGUUUACGAGGAGGAGGCUUAUCGAAUUUUCGGCGGAUGCCUCCAAA | < 1e-05 s⁻¹
11 | AUAAAAGGGCCAGAACUACAGAAAUGUAGUUGACGAAGUGGAGGUUUAUCGAAUUUUCGGCGGAUGCCUCCAAA | < 1e-05 s⁻¹
12 | AUAAAAGCCCCAGAACUACAGAAAUGUAGUUGACGAGGAGGAGGUUUAUCGUAUUUUUGGCGGAUGCCUCCAAA | < 1e-05 s⁻¹
13 | AUAAAAGUGCCAGAACUACAGAAAUGUAGUUGACGAGGUGGAGGUUUAUCGAAUUUUCGGCGGAUGGCUCCAAA | < 1e-05 s⁻¹
14 | AUAAAAGGGCCAGAAGUACAGAAAUGUAGUUGACGAGGACGAGGUUUAUCGAAUUUUCGGCGGAUGCCUCCAAA | < 1e-05 s⁻¹
15 | AUAAAAGGGCCAGAACUACAGAAAUGUAGUUGACGAGGAUCAGGUUUAUCGAAUUUUCGGCGGAUGCCUCCAAA | < 1e-05 s⁻¹
16 | AUAAAAGGGCCAGAACUACAGAAAUGUAGUUGGCGAGGAGGAGGUUUAUCGGGUUUUCGGCGGAUGCAGCCAAA | 0.000457 ± 0.00011 s⁻¹
17 | AUAAAACCGCGUGAACUACAGAAAUGUAGUUGACGAGGAGGAGGUUUAUCGAAUUUUCGGCGGAUGCCUCCAAA | < 1e-05 s⁻¹
18 | AUAAAAGAGCCAGAACUACAGAAAUGUAGUUGCCGAGGAAGAGGUUGAUCGAAUUUUCGGCGGAUGCCUCCAAA | < 1e-05 s⁻¹
19 | AUAAAAGGGCCAGAACUACAGAAAUGUAGUUGACGAGGAGGAGGUGUUUCGAAUGUUCGGCGGAUUCCUUCAAA | < 1e-05 s⁻¹

Row | Variant | self-cleavage kobs at 2500 uM GlcN6P
20 | AUAAAAGGGCCAGAGCUACAGAAAUGUAGCUGACGAGGAGGGGGAGUAUCGAAUUUUCGGCGGAUGCCUCCAAA | < 1e-05 s⁻¹
21 | AUAAAAGCCCCAGAACUACAGAAAUGUAGUUGACGAGGAUUAGGGUUAUCGAAUUUUCGGCGGAUGCCUCCAAA | < 1e-05 s⁻¹
22 | AUAAAAGAGCCAGAACUACAGAAAUGUAGUUUACGAGGAGGAGGUUUCUCGAAUUUUCGGCGGAUGCCUCCAAA | < 1e-05 s⁻¹
23 | AUAAAAGAGCCAGAACUACAGAAAUGUAGUUGACGAGGAGGAGGUUUAUCGAAUUUUCGGGGGGUGCCUCCAAA | < 1e-05 s⁻¹
24 | AUAAAACCGCCAGAACUACAUAAAUGUAGUUGACGAGGAGGAGGUUUAUCGAAUUUUCGGCGGAUGGCUCCAAA | < 1e-05 s⁻¹
25 | AUAAAAGGGCAAUAACUACAGAAAUGUAGUUGUCGCGGAGGAGGUUUAUCGAAUCUUGGGCGGAUGCCUCGAAA | < 1e-05 s⁻¹
26 | AUAAAAUCGGCAGAACUACAGAAAUGUAGUUGACGAGGAGGAUGUUUAUCGAAUUUUCGGCGGAUGCCUCCAAA | < 1e-05 s⁻¹
27 | AUAAAACCGCCAGAAAUACAGAAAUGUAGUUGACGAGGAGGACGGUUAUCGAAUUUUCGGCGGAUGCCUCUAAA | < 1e-05 s⁻¹
28 | AUAAAACCGUCACAACUACAGAAAUGUAGUUGACGAGGAGGAGGUUUAUCGAAUUUUCGGCGGAUUCCUCCAAA | < 1e-05 s⁻¹
29 | AUAAAAGUGCCAGAACUACAGAAAUGUAUUUGACGUGGAGGAGGUUUAUCGAAUUUUCGGCGGAUGCCUCCAAA | < 1e-05 s⁻¹
30 | AUAAAAGUGCCAAAGCUACAGAAAUGUAGUUGACGAGGAGGAGGUUUAUCGAAUUUUCGGCGGAUGCCUCCAAA | < 1e-05 s⁻¹
31 | AUAAAACCGCCAGAACUACAGAAAUGUAGUUGACGAGGAGGGGGUUUAUCGAAUUUUCUGCGGAUGCCUCCAAA | < 1e-05 s⁻¹
32 | AUAAAAGUGCCAGAACUACAGAAAUGUAGUUGACGAGAAGGAGGUUUAUCGAAUUUUCGGCGGAUGCCUACAAA | < 1e-05 s⁻¹
33 | AUAAAAGCUCCUGAACUACAGAAAUGUAGUUGACGAGGAGGAGGUUUAUCGAAUUUUCGGCGGAUGCUUCCAAA | < 1e-05 s⁻¹
34 | AUAAAAGCACCAGAACUACAGAAAUGUAGUUGACGAGGAGGAGGUUUAUGGAAUAUUCGGCGGAUGGCUCCAAA | 4.95e-05 ± 1.9e-05 s⁻¹
35 | AUAAAAUCGCCAGAACUACAGAAAUGUAGUUGACGAGGAGGAGGAUUAUCGAAUUUUAGGCGGAUGCCUCCAAA | < 1e-05 s⁻¹
36 | AUAAAAUCGCAAGCCCUACAGAAAUGUAGUUGCCGAGGAGGAGGUGUGUCGAAUUUUCGGUGGAUGACUCCAAA | < 1e-05 s⁻¹
37 | AUAAAAGCACCAGGUCUACAGAAAUGUAGUUGACGAGGAGGAGGUUUAUCGAAUAUUCGGCGGAUGCCUCCAAA | 7.2e-05 ± 1.6e-05 s⁻¹
